Test results taken from patent US20130251724A1 (GlaxoSmithKline, published 2013).
Substitutions are numbered along the chain they refer to. Numbers in names are those of the source.

T1: Cynomolgus OSM (cynomolgus, UniProt A0A2K5VPC6 26-221)
T1 construct: also called Cyno OSM; cynomolgus macaque OSM
T1 sequence: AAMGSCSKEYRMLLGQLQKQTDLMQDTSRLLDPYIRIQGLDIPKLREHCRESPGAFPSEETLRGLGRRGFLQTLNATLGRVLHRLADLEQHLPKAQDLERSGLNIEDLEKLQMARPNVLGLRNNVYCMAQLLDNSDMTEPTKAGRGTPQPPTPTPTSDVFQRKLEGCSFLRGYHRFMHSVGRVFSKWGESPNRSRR

T2: Human OSM (human, UniProt P13725 26-221)
T2 construct: Recombinant human OSM; also called hOSM; human Oncostatin M
T2 sequence: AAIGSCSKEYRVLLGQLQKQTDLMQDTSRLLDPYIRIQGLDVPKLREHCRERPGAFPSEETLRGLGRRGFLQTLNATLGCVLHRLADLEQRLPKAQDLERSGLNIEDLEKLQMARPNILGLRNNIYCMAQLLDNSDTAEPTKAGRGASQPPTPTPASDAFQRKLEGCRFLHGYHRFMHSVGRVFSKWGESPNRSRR

B1: Humanised 10G8 H0 IGHV3_7 + L1 IGKV4_1 (antibody, V domains shown)
VH: EVQLVESGGGLVQPGGSLRLSCAASGFTFSSYWMSWVRQAPGKGLEWVATISDGGSFTYYLDNVRGRFTISRDNAKNSLYLQMNSLRAEDTAVYYCARDVGHTTFWYFDVWGRGTLVTVSS
VL: DIVMTQSPDSLAVSLGERATINCRASKSVSAAGYNFMHWYQQKPGQPPKVLIYWASTRESGVPDRFSGSGSGTDFTLTISSLQAEDVAVYYCLHSREFPFTFGGGTKVEIK
notes: built from the stated CDR exchanges; residue limits derived by me
B2: Humanised 10G8 H0 IGHV3_7 + L1 (antibody, V domains shown)
VH: B1 VH
VL: B1 VL with W54Y, T57N, R58L
notes: built from the statement that the germline CDRH1 was exchanged for the mouse CDRH1 in H0; Human gamma 1/kappa constant regions
B3: Humanised 10G8 H0 IGHV3_23 + L1 IGKV1_5 (antibody, V domains shown)
VH: B1 VH with W33A
VL: B1 VL with W54K, T57S, R58L
notes: built from the stated exchange of CDRL2; residue limits derived by me
B4: Humanised 10G8 H0 + L1 IGKV1_5 (antibody, V domains shown)
VH: B1 VH with S31N, W33A
VL: B1 VL with W54K, T57S, R58L
notes: built from the stated exchange of CDRL2; residue limits derived by me; Human gamma 1/kappa constant regions
B5: Pos 101 Glu (antibody, V domains shown)
VH: B1 VH with W33A, D109E
VL: DIVMTQSPDSLAVSLGERATINCRASKSVSAAGYNFMHWYQQKPGQPPKVLIYYASNLESGVPDRFSGSGSGTDFTLTISSLQAEDVAVYYCLHSREFPFTFGGGTKVEIKR
notes: also called CDRH3 D101>E
B6: Pos 98 Ala (antibody, V domains shown)
VH: B1 VH with W33A, H102A
VL: B5 VL
notes: also called CDRH3 H98>A
B7: Pos 102 Leu (antibody, V domains shown)
VH: B1 VH with W33A, V110L
VL: B5 VL
notes: also called CDRH3 V102>L
B8: Pos 102 Gln (antibody, V domains shown)
VH: B1 VH with W33A, V110Q
VL: B5 VL
notes: also called CDRH3 V102>Q
B9: Pos 102 Pro (antibody, V domains shown)
VH: B1 VH with W33A, V110P
VL: B5 VL
notes: also called CDRH3 V102>P
B10: Pos 96 Lys (antibody, V domains shown)
VH: B1 VH with W33A, V100K
VL: B5 VL
notes: also called CDRH3 V96>K
B11: Pos 100C Phe (antibody, V domains shown)
VH: B1 VH with W33A, Y107F
VL: B5 VL
notes: also called CDRH3 Y100C>F
B12: Pos 102 Ala (antibody, V domains shown)
VH: B1 VH with W33A, V110A
VL: B5 VL
notes: also called CDRH3 V102>A
B13: Pos 100D Glu (antibody, V domains shown)
VH: B1 VH with W33A, F108E
VL: B5 VL
notes: also called CDRH3 F100D>E
B14: Pos 100B Glu (antibody, V domains shown)
VH: B1 VH with W33A, W106E
VL: B5 VL
notes: also called CDRH3 W100B>E
B15: Pos 100D Asp (antibody, V domains shown)
VH: B1 VH with W33A, F108D
VL: B5 VL
notes: also called CDRH3 F100D>D
B16: Pos 97 Met (antibody, V domains shown)
VH: B1 VH with W33A, G101M
VL: B5 VL
notes: also called CDRH3 G97>M
B17: Pos 100C Gly (antibody, V domains shown)
VH: B1 VH with W33A, Y107G
VL: B5 VL
notes: also called CDRH3 Y100C>G
B18: Pos 100C Glu (antibody, V domains shown)
VH: B1 VH with W33A, Y107E
VL: B5 VL
notes: also called CDRH3 Y100C>E
B19: Pos 98 Gln (antibody, V domains shown)
VH: B1 VH with W33A, H102Q
VL: B5 VL
notes: also called CDRH3 H98>Q
B20: Pos 100D Gly (antibody, V domains shown)
VH: B1 VH with W33A, F108G
VL: B5 VL
notes: also called CDRH3 F100D>G
B21: Pos 97 Ala (antibody, V domains shown)
VH: B1 VH with W33A, G101A
VL: B5 VL
notes: also called CDRH3 G97>A
B22: Pos 102 Phe (antibody, V domains shown)
VH: B1 VH with W33A, V110F
VL: B5 VL
notes: also called CDRH3 V102>F
B23: Pos 97 Phe (antibody, V domains shown)
VH: B1 VH with W33A, G101F
VL: B5 VL
notes: also called CDRH3 G97>F
B24: Pos 101 Gly (antibody, V domains shown)
VH: B1 VH with W33A, D109G
VL: B5 VL
notes: also called CDRH3 D101>G
B25: Pos 96 His (antibody, V domains shown)
VH: B1 VH with W33A, V100H
VL: B5 VL
notes: also called CDRH3 V96>H
B26: Pos 98 Phe (antibody, V domains shown)
VH: B1 VH with W33A, H102F
VL: B5 VL
notes: also called CDRH3 H98>F
B27: Pos 100D Ala (antibody, V domains shown)
VH: B1 VH with W33A, F108A
VL: B5 VL
notes: also called CDRH3 F100D>A
B28: Pos 102 Gly (antibody, V domains shown)
VH: B1 VH with W33A, V110G
VL: B5 VL
notes: also called CDRH3 V102>G
B29: Pos 99 Cys (antibody, V domains shown)
VH: B1 VH with W33A, T103C
VL: B5 VL
notes: also called CDRH3 T99>C
B30: Pos 96 Phe (antibody, V domains shown)
VH: B1 VH with W33A, V100F
VL: B5 VL
notes: also called CDRH3 V96>F
B31: Pos 98 Gly (antibody, V domains shown)
VH: B1 VH with W33A, H102G
VL: B5 VL
notes: also called CDRH3 H98>G
B32: Pos 99 Ala (antibody, V domains shown)
VH: B1 VH with W33A, T103A
VL: B5 VL
notes: also called CDRH3 T99>A
B33: Pos 97 Cys (antibody, V domains shown)
VH: B1 VH with W33A, G101C
VL: B5 VL
notes: also called CDRH3 G97>C
B34: Pos 95 Thr (antibody, V domains shown)
VH: B1 VH with W33A, D99T
VL: B5 VL
notes: also called CDRH3 D95>T

Molecular target: T1, Cynomolgus OSM
Experiment: BIAcore kinetics, transfection supernatant

Kd [pM]	koff [s⁻¹]	kon [M⁻¹ s⁻¹]	Binder
34900	0.00177	50700	B1
24200	0.815	3.37e+07	B2
8890	0.000593	66700	B3
8260	0.000557	67500	B4

Molecular target: T2, Human OSM
Experiment: BIAcore kinetics, transfection supernatant

Kd [pM]	koff [s⁻¹]	kon [M⁻¹ s⁻¹]	Binder
44400	0.00163	36800	B1
10600	0.000967	91000	B2
9270	0.00066	71100	B3
9330	0.00064	68700	B4

Molecular target: T2, Human OSM
Experiment: SPR (ProteOn XPR36 or Biacore T100), captured supernatant, OSM as analyte
Description: (§1) The initial kinetic analyses for the CDRH3 screen were carried out on the ProteOn XPR36 (Biorad Laboratories) and certain supernatants were selected for more accurate kinetic analysis on the BiaCore T100.
(§2) For the ProteOn analysis, anti-human IgG (GE Healthcare/Biacore BR-1008-39) was coupled to a GLM chip (Biorad Laboratories 176-5012) by primary amine coupling. The CDRH3 variants were captured directly on to this surface and recombinant human OSM was passed over the captured antibody surface at 256, 64, 16, 4 and 1 nM, with a buffer injection alone (i.e. 0 nM) used to double reference the binding curves. Following the OSM binding event, the capture surfaces were regenerated: with 3M MgCl₂ the regeneration removed the previously captured antibody ready for another cycle of capture and binding analysis. The data was then fitted to the 1:1 model (with mass transport) inherent to the ProteOn analysis software. The run was carried out using HBS-EP (Biacore/GE-Healthcare BR-1006-69) and the analysis temperature was 25° C.
(§3) A similar method was used for analysis of constructs using the Biacore T100, anti-human IgG (GE Healthcare/Biacore BR-1008-39) was coupled to a CM5 chip (GE Healthcare/Biacore BR-1006-68) by primary amine coupling, antibodies were captured on this surface and recombinant human OSM was passed over the captured antibody surface at 256, 64, 16, 4 and 1 nM, with a buffer injection alone (i.e. 0 nM) used to double reference the binding curves. Regeneration was by using pulses of 3M 3M MgCl₂ or 100 mM phosphoric acid or using both reagents. The data was fitted to the 1:1 model inherent to the Biacore T100 analysis software. The run was carried out using HBS-EP (Biacore/GE-Healthcare BR-1006-69) and the analysis temperature was 25° C.

Kd [pM]	Binder
426	B5
659	B6
426	B7
337	B8
411	B9
671	B10
365	B11
338	B12
688	B13
491	B14
672	B15
809	B16
388	B17
482	B18
729	B19
661	B20
486	B21
425	B22
637	B23
710	B24
480	B25
325	B26
869	B27
406	B28
708	B29
610	B30
1110	B31
541	B32
651	B33

Molecular target: T2, Human OSM
Experiment: SPR (ProteOn XPR36 or Biacore T100), captured supernatant, OSM as analyte [continued]
Description: as §1, §2, §3

Kd [pM]	Binder
632	B34
